The values that follow are results of earlier work, collected in PMC5310643.

The series concerns the target κI light chain variable domain (germline) VL (Homo sapiens) (UniProt P01594). In words: NMR diffusion.

Turning to “κI light chain variable domain (germline) VL (from UniProt P01594)”, the Kd is 217 µM.

By Kd is commonly meant the equilibrium constant for the complex coming apart.
